The values below come from US20180071366A1.

The target in assay [1] is recombinant human amylin 3 receptor (hAMYR3) (human), P30988. Briefly: cell-based or functional assay.
The target of assay [2] is recombinant human calcitonin receptor (hCT-R) (human), P30988. Briefly: cell-based or functional assay.

Numbered stars: 1 amine (or outer) side, 2 acyl side, 3 side chain; on linkers, the order of the positions; unused ones are H or OH. Bridge positions count the residues as written; N and C are the ends. Square brackets hold non-standard residues; d marks the D form. * marks the point of attachment. C20 diacid = O=C(O)CCCCCCCCCCCCCCCCCCC(=O)*; γGlu = O=C(O)[C@H](CCC(=O)[*:2])N[*:1]; Hyp = O=C(O)[C@@H]1C[C@@H](O)CN1; NMeI = CC[C@H](C)[C@H](NC)C(=O)O; Aad = N[C@@H](CCCC(=O)O)C(=O)O; hLys = NCCCCC[C@H](N)C(=O)O; Orn = NCCC[C@H](N)C(=O)O; Sar = CNCC(=O)O

Chain of recombinant human amylin 3 receptor (hAMYR3) (human), P30988 (P30988 25-474, chain 1 of 2): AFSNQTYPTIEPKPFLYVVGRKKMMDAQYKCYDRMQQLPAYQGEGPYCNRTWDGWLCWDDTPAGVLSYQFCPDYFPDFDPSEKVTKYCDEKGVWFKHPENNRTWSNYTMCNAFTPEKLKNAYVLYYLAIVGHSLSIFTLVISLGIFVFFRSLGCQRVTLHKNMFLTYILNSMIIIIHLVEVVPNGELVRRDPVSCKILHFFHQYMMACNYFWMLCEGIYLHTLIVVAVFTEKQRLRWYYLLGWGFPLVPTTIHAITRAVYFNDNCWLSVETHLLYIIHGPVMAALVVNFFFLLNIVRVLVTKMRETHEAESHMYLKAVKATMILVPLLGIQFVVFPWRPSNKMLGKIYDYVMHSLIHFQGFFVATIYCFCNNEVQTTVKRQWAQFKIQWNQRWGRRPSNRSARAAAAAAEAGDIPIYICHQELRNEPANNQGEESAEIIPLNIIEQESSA
Chain of recombinant human amylin 3 receptor (hAMYR3) (human), P30988 (O60896 24-148, chain 2 of 2, further chain): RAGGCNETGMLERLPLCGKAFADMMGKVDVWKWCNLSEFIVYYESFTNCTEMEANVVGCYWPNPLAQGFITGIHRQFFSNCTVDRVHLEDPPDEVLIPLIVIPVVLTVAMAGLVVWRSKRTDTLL
Chain of recombinant human calcitonin receptor (hCT-R) (human), P30988 (P30988 25-474): as the sequence (P30988 25-474, chain 1 of 2) above

B1: Compound 20 (peptide)
peptide: {C20 diacid-γGlu}-RDGTAT[Orn]ATERLA[Aad]FLQRSSF[Sar]A[NMeI]LSSTEVGSNT[Hyp]-NH2
modifications: lactam 2-7
SMILES: CC[C@H](C)[C@@H](C(=O)N[C@@H](CC(C)C)C(=O)N[C@@H](CO)C(=O)N[C@@H](CO)C(=O)N[C@H](C(=O)N[C@@H](CCC(=O)O)C(=O)N[C@H](C(=O)NCC(=O)N[C@@H](CO)C(=O)N[C@@H](CC(N)=O)C(=O)N[C@H](C(=O)N1C[C@H](O)C[C@H]1C(N)=O)[C@@H](C)O)C(C)C)[C@@H](C)O)N(C)C(=O)[C@H](C)NC(=O)CN(C)C(=O)[C@H](Cc1ccccc1)NC(=O)[C@H](CO)NC(=O)[C@H](CO)NC(=O)[C@H](CCCNC(=N)N)NC(=O)[C@H](CCC(N)=O)NC(=O)[C@H](CC(C)C)NC(=O)[C@H](Cc1ccccc1)NC(=O)[C@H](CCCC(=O)O)NC(=O)[C@H](C)NC(=O)[C@H](CC(C)C)NC(=O)[C@H](CCCNC(=N)N)NC(=O)[C@H](CCC(=O)O)NC(=O)[C@@H](NC(=O)[C@H](C)NC(=O)[C@@H]1CCCNC(=O)C[C@H](NC(=O)[C@H](CCCNC(=N)N)NC(=O)CC[C@H](NC(=O)CCCCCCCCCCCCCCCCCCC(=O)O)C(=O)O)C(=O)NCC(=O)N[C@@H]([C@@H](C)O)C(=O)N[C@@H](C)C(=O)N[C@@H]([C@@H](C)O)C(=O)N1)[C@@H](C)O
As for B1, the hAMYR3 EC50 [nM] (cAMP formation, 1321N1 cells expressing hAMYR3) in assay [1] was found to be 0.003 nM. Also, in assay [2], the hCT-R EC50 [nM] (cAMP formation, 1321N1 cells expressing hCT-R) was determined as 0.009 nM.

B2: Compound 18 (peptide)
peptide: {C20 diacid-γGlu}-RDGTATKATERLAHFLQRSSF[Sar]A[NMeI]LSSTEVGSNT[Hyp]-NH2
modifications: lactam 2-7
SMILES: CC[C@H](C)[C@@H](C(=O)N[C@@H](CC(C)C)C(=O)N[C@@H](CO)C(=O)N[C@@H](CO)C(=O)N[C@H](C(=O)N[C@@H](CCC(=O)O)C(=O)N[C@H](C(=O)NCC(=O)N[C@@H](CO)C(=O)N[C@@H](CC(N)=O)C(=O)N[C@H](C(=O)N1C[C@H](O)C[C@H]1C(N)=O)[C@@H](C)O)C(C)C)[C@@H](C)O)N(C)C(=O)[C@H](C)NC(=O)CN(C)C(=O)[C@H](Cc1ccccc1)NC(=O)[C@H](CO)NC(=O)[C@H](CO)NC(=O)[C@H](CCCNC(=N)N)NC(=O)[C@H](CCC(N)=O)NC(=O)[C@H](CC(C)C)NC(=O)[C@H](Cc1ccccc1)NC(=O)[C@H](Cc1c[nH]cn1)NC(=O)[C@H](C)NC(=O)[C@H](CC(C)C)NC(=O)[C@H](CCCNC(=N)N)NC(=O)[C@H](CCC(=O)O)NC(=O)[C@@H](NC(=O)[C@H](C)NC(=O)[C@@H]1CCCCNC(=O)C[C@H](NC(=O)[C@H](CCCNC(=N)N)NC(=O)CC[C@H](NC(=O)CCCCCCCCCCCCCCCCCCC(=O)O)C(=O)O)C(=O)NCC(=O)N[C@@H]([C@@H](C)O)C(=O)N[C@@H](C)C(=O)N[C@@H]([C@@H](C)O)C(=O)N1)[C@@H](C)O
As for B2, the hAMYR3 EC50 [nM] (cAMP formation, 1321N1 cells expressing hAMYR3) in assay [1] worked out at 0.031 nM. Also, the hCT-R EC50 [nM] (cAMP formation, 1321N1 cells expressing hCT-R) in assay [2] was found to be 0.085 nM.

B3: Compound 22 (peptide)
peptide: {C20 diacid-γGlu}-RDGTAT[Orn]ATERLA[Aad]FLTRSSF[Sar]A[NMeI]LSSTEVGSST[Hyp]-NH2
modifications: lactam 2-7
SMILES: CC[C@H](C)[C@@H](C(=O)N[C@@H](CC(C)C)C(=O)N[C@@H](CO)C(=O)N[C@@H](CO)C(=O)N[C@H](C(=O)N[C@@H](CCC(=O)O)C(=O)N[C@H](C(=O)NCC(=O)N[C@@H](CO)C(=O)N[C@@H](CO)C(=O)N[C@H](C(=O)N1C[C@H](O)C[C@H]1C(N)=O)[C@@H](C)O)C(C)C)[C@@H](C)O)N(C)C(=O)[C@H](C)NC(=O)CN(C)C(=O)[C@H](Cc1ccccc1)NC(=O)[C@H](CO)NC(=O)[C@H](CO)NC(=O)[C@H](CCCNC(=N)N)NC(=O)[C@@H](NC(=O)[C@H](CC(C)C)NC(=O)[C@H](Cc1ccccc1)NC(=O)[C@H](CCCC(=O)O)NC(=O)[C@H](C)NC(=O)[C@H](CC(C)C)NC(=O)[C@H](CCCNC(=N)N)NC(=O)[C@H](CCC(=O)O)NC(=O)[C@@H](NC(=O)[C@H](C)NC(=O)[C@@H]1CCCNC(=O)C[C@H](NC(=O)[C@H](CCCNC(=N)N)NC(=O)CC[C@H](NC(=O)CCCCCCCCCCCCCCCCCCC(=O)O)C(=O)O)C(=O)NCC(=O)N[C@@H]([C@@H](C)O)C(=O)N[C@@H](C)C(=O)N[C@@H]([C@@H](C)O)C(=O)N1)[C@@H](C)O)[C@@H](C)O
Take B3: the hAMYR3 EC50 [nM] (cAMP formation, 1321N1 cells expressing hAMYR3) in assay [1] was determined as 0.051 nM. In assay [2], the hCT-R EC50 [nM] (cAMP formation, 1321N1 cells expressing hCT-R) was 0.474 nM.

B4: Compound 19 (peptide)
peptide: {C20 diacid-γGlu}-RDGTAT[hLys]ATERLAHFLQRSSF[Sar]A[NMeI]LSSTEVGSNT[Hyp]-NH2
modifications: lactam 2-7
SMILES: CC[C@H](C)[C@@H](C(=O)N[C@@H](CC(C)C)C(=O)N[C@@H](CO)C(=O)N[C@@H](CO)C(=O)N[C@H](C(=O)N[C@@H](CCC(=O)O)C(=O)N[C@H](C(=O)NCC(=O)N[C@@H](CO)C(=O)N[C@@H](CC(N)=O)C(=O)N[C@H](C(=O)N1C[C@H](O)C[C@H]1C(N)=O)[C@@H](C)O)C(C)C)[C@@H](C)O)N(C)C(=O)[C@H](C)NC(=O)CN(C)C(=O)[C@H](Cc1ccccc1)NC(=O)[C@H](CO)NC(=O)[C@H](CO)NC(=O)[C@H](CCCNC(=N)N)NC(=O)[C@H](CCC(N)=O)NC(=O)[C@H](CC(C)C)NC(=O)[C@H](Cc1ccccc1)NC(=O)[C@H](Cc1c[nH]cn1)NC(=O)[C@H](C)NC(=O)[C@H](CC(C)C)NC(=O)[C@H](CCCNC(=N)N)NC(=O)[C@H](CCC(=O)O)NC(=O)[C@@H](NC(=O)[C@H](C)NC(=O)[C@@H]1CCCCCNC(=O)C[C@H](NC(=O)[C@H](CCCNC(=N)N)NC(=O)CC[C@H](NC(=O)CCCCCCCCCCCCCCCCCCC(=O)O)C(=O)O)C(=O)NCC(=O)N[C@@H]([C@@H](C)O)C(=O)N[C@@H](C)C(=O)N[C@@H]([C@@H](C)O)C(=O)N1)[C@@H](C)O
On to B4, for which the hAMYR3 EC50 [nM] (cAMP formation, 1321N1 cells expressing hAMYR3) in assay [1] stood at 0.006 nM. Besides, the hCT-R EC50 [nM] (cAMP formation, 1321N1 cells expressing hCT-R) in assay [2] turned out to be 0.028 nM.

B5: Compound 23 (peptide)
peptide: {C20 diacid-γGlu}-RDGTAT[Orn]ATERLA[Aad]FLQRTTF[Sar]A[NMeI]LSSTEVGSNT[Hyp]-NH2
modifications: lactam 2-7
SMILES: CC[C@H](C)[C@@H](C(=O)N[C@@H](CC(C)C)C(=O)N[C@@H](CO)C(=O)N[C@@H](CO)C(=O)N[C@H](C(=O)N[C@@H](CCC(=O)O)C(=O)N[C@H](C(=O)NCC(=O)N[C@@H](CO)C(=O)N[C@@H](CC(N)=O)C(=O)N[C@H](C(=O)N1C[C@H](O)C[C@H]1C(N)=O)[C@@H](C)O)C(C)C)[C@@H](C)O)N(C)C(=O)[C@H](C)NC(=O)CN(C)C(=O)[C@H](Cc1ccccc1)NC(=O)[C@@H](NC(=O)[C@@H](NC(=O)[C@H](CCCNC(=N)N)NC(=O)[C@H](CCC(N)=O)NC(=O)[C@H](CC(C)C)NC(=O)[C@H](Cc1ccccc1)NC(=O)[C@H](CCCC(=O)O)NC(=O)[C@H](C)NC(=O)[C@H](CC(C)C)NC(=O)[C@H](CCCNC(=N)N)NC(=O)[C@H](CCC(=O)O)NC(=O)[C@@H](NC(=O)[C@H](C)NC(=O)[C@@H]1CCCNC(=O)C[C@H](NC(=O)[C@H](CCCNC(=N)N)NC(=O)CC[C@H](NC(=O)CCCCCCCCCCCCCCCCCCC(=O)O)C(=O)O)C(=O)NCC(=O)N[C@@H]([C@@H](C)O)C(=O)N[C@@H](C)C(=O)N[C@@H]([C@@H](C)O)C(=O)N1)[C@@H](C)O)[C@@H](C)O)[C@@H](C)O
Regarding B5, the hAMYR3 EC50 [nM] (cAMP formation, 1321N1 cells expressing hAMYR3) in assay [1] is 0.706 nM. In addition, the hCT-R EC50 [nM] (cAMP formation, 1321N1 cells expressing hCT-R) in assay [2] was found to be 1.93 nM.

B6: Compound 24 (peptide)
peptide: {C20 diacid-γGlu}-RDGTAT[Orn]ATERLA[Aad]FLQRTTF[Sar]A[NMeI]PSSTEVGSNT[Hyp]-NH2
modifications: lactam 2-7
SMILES: CC[C@H](C)[C@@H](C(=O)N1CCC[C@H]1C(=O)N[C@@H](CO)C(=O)N[C@@H](CO)C(=O)N[C@H](C(=O)N[C@@H](CCC(=O)O)C(=O)N[C@H](C(=O)NCC(=O)N[C@@H](CO)C(=O)N[C@@H](CC(N)=O)C(=O)N[C@H](C(=O)N1C[C@H](O)C[C@H]1C(N)=O)[C@@H](C)O)C(C)C)[C@@H](C)O)N(C)C(=O)[C@H](C)NC(=O)CN(C)C(=O)[C@H](Cc1ccccc1)NC(=O)[C@@H](NC(=O)[C@@H](NC(=O)[C@H](CCCNC(=N)N)NC(=O)[C@H](CCC(N)=O)NC(=O)[C@H](CC(C)C)NC(=O)[C@H](Cc1ccccc1)NC(=O)[C@H](CCCC(=O)O)NC(=O)[C@H](C)NC(=O)[C@H](CC(C)C)NC(=O)[C@H](CCCNC(=N)N)NC(=O)[C@H](CCC(=O)O)NC(=O)[C@@H](NC(=O)[C@H](C)NC(=O)[C@@H]1CCCNC(=O)C[C@H](NC(=O)[C@H](CCCNC(=N)N)NC(=O)CC[C@H](NC(=O)CCCCCCCCCCCCCCCCCCC(=O)O)C(=O)O)C(=O)NCC(=O)N[C@@H]([C@@H](C)O)C(=O)N[C@@H](C)C(=O)N[C@@H]([C@@H](C)O)C(=O)N1)[C@@H](C)O)[C@@H](C)O)[C@@H](C)O
With B6, in assay [1], the hAMYR3 EC50 [nM] (cAMP formation, 1321N1 cells expressing hAMYR3) came out at 0.013 nM. Also, the hCT-R EC50 [nM] (cAMP formation, 1321N1 cells expressing hCT-R) in assay [2] is 0.038 nM.

B7: Compound 21 (peptide)
peptide: {C20 diacid-γGlu}-RDGTAT[Orn]ATERLA[Aad]FLQRSSF[Sar]A[NMeI]PSSTEVGSNT[Hyp]-NH2
modifications: lactam 2-7
SMILES: CC[C@H](C)[C@@H](C(=O)N1CCC[C@H]1C(=O)N[C@@H](CO)C(=O)N[C@@H](CO)C(=O)N[C@H](C(=O)N[C@@H](CCC(=O)O)C(=O)N[C@H](C(=O)NCC(=O)N[C@@H](CO)C(=O)N[C@@H](CC(N)=O)C(=O)N[C@H](C(=O)N1C[C@H](O)C[C@H]1C(N)=O)[C@@H](C)O)C(C)C)[C@@H](C)O)N(C)C(=O)[C@H](C)NC(=O)CN(C)C(=O)[C@H](Cc1ccccc1)NC(=O)[C@H](CO)NC(=O)[C@H](CO)NC(=O)[C@H](CCCNC(=N)N)NC(=O)[C@H](CCC(N)=O)NC(=O)[C@H](CC(C)C)NC(=O)[C@H](Cc1ccccc1)NC(=O)[C@H](CCCC(=O)O)NC(=O)[C@H](C)NC(=O)[C@H](CC(C)C)NC(=O)[C@H](CCCNC(=N)N)NC(=O)[C@H](CCC(=O)O)NC(=O)[C@@H](NC(=O)[C@H](C)NC(=O)[C@@H]1CCCNC(=O)C[C@H](NC(=O)[C@H](CCCNC(=N)N)NC(=O)CC[C@H](NC(=O)CCCCCCCCCCCCCCCCCCC(=O)O)C(=O)O)C(=O)NCC(=O)N[C@@H]([C@@H](C)O)C(=O)N[C@@H](C)C(=O)N[C@@H]([C@@H](C)O)C(=O)N1)[C@@H](C)O
In the case of B7, in assay [1], the hAMYR3 EC50 [nM] (cAMP formation, 1321N1 cells expressing hAMYR3) turned out to be 0.01 nM. In addition, the hCT-R EC50 [nM] (cAMP formation, 1321N1 cells expressing hCT-R) in assay [2] came out at 0.037 nM.
